The nature of this data set: soluble on expression in E. coli; label from the status in PepcDB or PDB records.
Turning to “MGHHHHHHSHMEFPFDVDALFPERITVLDQHLRPPARRPGTTTPARVDLQQQIMTIIDELGKASAKAQNLSAPITSASRMQSNRHVVYILKDSSARPAGKGAIIGFIKVGYKKLFVLDDREAHNEVEPLCILDFYIHESVQRHGHGRELFQYMLQKERVEPHQLAIDRPSQKLLKFLNKHYNLETTVPQVNNFVIFEGFFAHQHRPPAPSLRATRHSRAAAVDPTPAAPARKLPPKRAEGDIKPYSSSDREFLKVAVEPPWPLNRAPRRATPPAHPPPRSSSLGNSPERGPLRPFVPEQELLRSLRLCPPHPTARLLLAADPGGSPAQRRRTR”, the “soluble on expression in E. coli” value is “not soluble”.

“MGHHHHHHSHMEGMDVDLDPELMQKFSCLGTTDKDVLISEFQRLLGFQLNPAGCAFFLDMTNWSLQAAIGAYYDFESPNISVPSMSFVEDVTIGEGESIPPDTQFVKTWRIQNSDVIWVILSVEVGGLLGVTQQLSSFETEFNTQPHRKVEGNFNPFASPQKNRQSDENNLKDPGGSEFDSISKNTWAPAPDTWAPAPDQTEQDQNRLSQNSVNLSPSSHANNLSVVTYSKGLHGPYPFGQS”: the “soluble on expression in E. coli” value was “soluble”.

On to “MGHHHHHHSHMEPGEELEEEGSPGGREDGFTAEHLAAEAMAADMDPWLVFDARTTPATELDAWLAKYPPSQVTRYGDPGSPNSEPVGWIAVYGQGYSPNSGDVQGLQAAWEALQTSGRPITPGTLRQLAITHHVLSGKWLMHLAPGFKLDHAWAGIARAVVEGRLQVAKVSPRAKEGGRQVICVYTDDFTDRLGVLEADSAIRAAGIKCLLTYKPDVYTYLGIYRANRWHLCPTLYESRFQLGGSARGSRVLDRANNVELT”, for which the “soluble on expression in E. coli” value is on record as “not soluble”.

In the case of “MGHHHHHHSHMETIGAKALEDFADNIKNDPDKEYNMPKDGTVHELTSNAILFLQQLLDFQETAGAMLASQETSSSATSYSSEFSKRLLSTYICKVLGNLQLNLLSKSKVYEDPALSAIFLHNNYNYILKSLEKSELIQLVAVTQKTAERSYREHIEQQIQTYQRSWLKVTDYIAEKNLPVFQPGVKLRDKERQIIKERFKGFNDGLEELCKIQKAWAIPDTEQRDRIRQAQKTIVKETYGAFLQKFGSVPFTKNPEKYIKYGVEQVGDMIDRLFDTSA”, the “soluble on expression in E. coli” value was “not soluble”.

For the sequence “MGHHHHHHSHMGGLPMISASLQQRKTRTRRSMLFVPGANAAMVSNSFIYPADALMFDLEDSVALREKDTARRMVYHALQHPLYRDIETIVRVNALDSEWGVNDLEAVVRGGADVVRLPKTDTAQDVLDIEKEILRIEKACGREPGSTGLLAAIESPLGITRAVEIAHASERLIGIALGAEDYVRNLRTERSPEGTELLFARCSILQAARSAGIQAFDTVYSDANNEAGFLQEAAHIKQLGFDGKSLINPRQIDLLHNLYAPTQKEVDHARRVVEAAEAAAREGLGVVSLNGKMVDGPVIDRARLVLSRAELSGIREE”, the “soluble on expression in E. coli” value is “not soluble”.

As for “MGHHHHHHSHMHISGVFATKDAVAVWNGRQVAIFELSGAAIRSAGTFLCETPVLAMHEENVYTVESNRVQVRTWQGTVKQLLLFSETEGNPCFLDICGNFLVVGTDLAHFKSFDLSRREAKAHCSCRSLAELVPGVGGIASLRCSSSGSTISILPSKADNSPDSKICFYDVEMDTVTVFDFKTGQAWCLALVEVGPKGPSARDASAETRVWETPHALHLPAPPSWRGPGSVGKGSCER”, the “soluble on expression in E. coli” value is “not soluble”.

In the case of “MGHHHHHHSHMIDILDVKSRATIQDLGRFGLRRFGISHCGAMDKLALRAGNILLGNAENVPAIEVPLGGITLQFQQDMNFCVTGAFYEMMLDDKPVFAYWRYQVRAGQILKMARAKIGMYGYLCVQGGFVLPQALNSCSTDLRAQIGGIEGRCLQAGDQLQTANDHILRSEIGIAPIPLRDVIRALPSSEYQAFKRKSQYYWWRNEWTLQSNSDRMGYRFQGQTLELKQPLEMLSHAIQFGSVQVPPSGQPIILMADAQTTGGYPKIANVIDADLGALAQVRLGSTIKFEAVSLQEAAKLRRKNEIYLDQIRRIVDEKN”, the “soluble on expression in E. coli” value is listed as “not soluble”.

On to “MGHHHHHHSHMKANLSLLRRPGEKTYTQRCRLFVGNLPADITEDEFKRLFAKYGEPGEVFINKGKGFGFIKLESRALAEIAKAELDDTPMRGRQLRVRFATHAAALSVRNLSPYVSNELLEEAFSQFGPIERAVVIVDDRGRSTGKGIVEFASKPAARKAFERCSEGVFLLTTTPRPVIVEPLEQLDDEDGLPEKLAQKNPMYQKE”, for which the “soluble on expression in E. coli” value was “soluble”.

For the sequence “MGHHHHHHSHMKFEAFKIVPVGYIRKEKNVFIEILPEFREGMEGLREGDWIKLILWFHKSDTPELRRILKVHPHGNPENPLTGVFATRSPFRPNPYTVKVHKIEGNRIYIDWIDAEDGTPVSDIKIFPERYDCPKENYQSTSRLKS”, the “soluble on expression in E. coli” value is given as “soluble”.

Take “MGHHHHHHSHMKFRAKIVDGACLNHFTRISNMIAKLAKTCTLRISPDKLNFILCDKLANGGVSMWCELEQENFFNEFQMEGVSAENNEIYLELTSENLSRALKTAQNARALKIKLTNKHFPCLTVSVELLSMSSSSRIVTHDIPIKVIPRKLWKDLQEPVVPDPDVSIYLPVLKTMKSVVEKMKNISNHLVIEANLDGELNLKIETELVCVTTHFKDLGNPPLASESTHEDRNVEHMAEVHIDIRKLLQFLAGQQVNPTKALCNIVNNKMVHFDLLHEDVSLQYFIPALS”: the “soluble on expression in E. coli” value is recorded as “soluble”.

Turning to “MGHHHHHHSHMKVAQAKLKEIGPDDMNMEEYKKWHEDYSLFRKVSVYLLTGLELYQKGKYQEALSYLVYAYQSNAALLMKGPRRGVKESVIALYRRKCLLELNAKAASLFETNDDHSVTEGINVMNELIIPCIHLIINNDISKDDLDAIEVMRNHWCSYLGQDIAENLQLCLGEFLPRLLDPSAEIIVLKEPPTIRPNSPYDLCSRFAAVMESIQGVSTVTVK”, the “soluble on expression in E. coli” value is “not soluble”.

In the case of “MGHHHHHHSHMLNSTGELEFSNEEDPEIISQLTSLPLSGGKSSAGVPEKTGYPDSVYVMAANIFQGIRIEKSAQKVLIKYGNEPLRSLSESEDQSFQRLSYELAFSALKYQDILETILIDSCIFPSTTTPDHLSSLIIVMLYDFQDRKFQTRVLSDNEEPISEVQEVENLLNSFKIKLAAALARCRIKHDALSIYHILPETVRKQELRASTLPLYAWINTCKISPEEVYNNLKRRGYNKVKSVLHIDDKVFAVDQHCYDVLIFPSHLKNDLINIDLFKDYKLIFQVN”, the “soluble on expression in E. coli” value was “not soluble”.

For the sequence “MGHHHHHHSHMLRILKKDCALTGGEVTLANQTKIFYVIKAPSLCSLVGSPSSDSVTSQELFKTFPCETPLSMPLVSTSNPLLSIVRLMVSPKPYDLTGVLCFGEDHETHYILRRVAKILTMTQEELDTICDIELHFSSNETLSSNRVPSRLTESIFPGLVPTVHFPQNMILSRGFFTGGNGPIIKHVAQTHHLTSDFVARVFYALKTPQAHAPGAAQLYRGLQIMNHAHNGLDFFPSDSDINDMQQMFLKHVLLSRKGTDSCAQMFFQAYLPVAPEVLGPEVIERVELALAKIELFANNTVFCMSTISTIVRPRIQVTTSANIKYIRMANKYFTMFPPINKDTAVIFGAAVLDQICKETPIREIVLVLRKYAHVVRRPHTPTIKLYTVLTL”, the “soluble on expression in E. coli” value is “not soluble”.

As to “MGHHHHHHSHMLVDNLYRVVSNQKDAAVIRVHLEVNASHEIFKGHFPEVPVLPGVCMVQCIKELIEESLLVKTQIDKGDMIKFLSMLNPVESNSIQAEISIKEKTETRIVFQATLKNEDRFLLKYSGSLVVLN”, the “soluble on expression in E. coli” value is “not soluble”.

“MGHHHHHHSHMPLTSAFRAVDNDPGIIVWRIEKMELALVPVSAHGNFYEGDCYVILSTRRVASLLSQDIHFWIGKDSSQDEQSCAAIYTTQLDDYLGGSPVQHREVQYHESDTFRGYFKQGIIYKQGGVASGMKHVETNTYDVKRLLHVKGKRNIRATEVEMSWDSFNRGDVFLLDLGKVIIQWNGPESNSGERLKAMLLAKDIRDRERGGRAEIGVIEGDKEAASPELMKVLQDTLGRRSIIKPTVPDEIID”: the “soluble on expression in E. coli” value is on record as “soluble”.

In the case of “MGHHHHHHSHMQYMYFKAEPYAADEGSGEGHKWLMVHVDKRITLAAFKQHLEPFVGVLSSHFKVFRVYASNQEFESVRLNETLSSFSDDNKITIRLGRALKKGEYRVKVYQLLVNEQEPCKFLLDAVFAKGMTVRQSKGELIPQLREQCGLELSIDRFRLRKKTWKNPGTVFLDYHIYEEDINISSNWEVFLEVLDGVEKMKSMSQLAVLSRRWKPSEMKLDPFQEVVLESSSVDELREKLSEISGIPLDDIEFAKGRGTFPCDISVLDIHQDLDWNPKVSTLNVWPLYICDDGGVIFYRDKTEELMELTDEQRNELMKKESSRLQKTGHRVTYSPRKEKALKIYLDGAPNKDLTQD”, the “soluble on expression in E. coli” value is “not soluble”.

Turning to “MGHHHHHHSHMRLTLLCCTWREERMGEEGSELPVCASCGQRIYDGQYLQALNADWHADCFRCCDCSASLSHQYYEKDGQLFCKKDYWARYGESCHGCSEQITKGLVMVAGELKYHPECFICLTCGTFIGDGDTYTLVEHSKLYCGHCYYQTVVTPVIEQILPDSPGSHLPHTVTLVSIPASSHGKRGLSVSIDPPHGPPGCGTEHSHTVRVQGVDPGCMSPDVKNSIHVGDRILEINGTPIRNVPLDEIDLLIQETSRLLQLTLEHDPHDTLGHGLGPETSPLSSPAYTPSGEAGSSARQKPVLRSCSIDRSPGAGSLGSPASQRKDLGRSESLRVVCRPHRIFRPSDLIHGEVLGKGCFGQAIKVTHRETGEVMVMKELIRFDEETQRTFLKEVKVMRCLEHPNVLKFIGVLYKDKRLNFITEYIKGGTLRGIIKSMDSQYPWSQRVSFAKDIASGMAYLHSMNIIHRDLNSHNCLVRENKNVVVADFGLARLMVDEKTQPEGLRSL”, the “soluble on expression in E. coli” value is “soluble”.

“MGHHHHHHSHMSETTQTSQSLYQALWNSADVLRSKMDANDYKSYLLGMVFYKYLSDKMLFFVAETMEEETESLDEALAVYRKYYEDEETHEDLLAVITDEMSYAIHPDLTFTALVERVNDGSFQLEDLAQGFRDIEQSDELYENLFEDIDLYSKKLGATPQKQNQTVAAVMKELAVLDVAGHAGDMLGDAYEYLIGQFATDSGKKAGEFYTPQPVAKLMTQIAFLGREDKQGFTLYDATMGSGSLLLNAKRYSRQPQTVVYFGQELNTSTYNLARMNMILHGVPIENQFLHNADTLDEDWPTQEPTNFDGVLMNPPYSAKWSASSGFMDDPRFSPFGKLAPKSKADFAFLLHGYYHLKQDNGVMAIVLPHGVLFRGNAEGTIRKALLEEGAIDTVIGLPANIFFNTSIPTTVIILKKNRTNRDVYFIDASKEFDKGKNQNIMTDAHIEKILNAYKSREDIDKFAHLASFEEIVENDYNLNIPRYVDTFEEEEVEPLTEIVAKINQTNATIESQTASLLDMLGQLHGTTPEADEELKAFVKAFKG”: the “soluble on expression in E. coli” value was “not soluble”.

As to “MGHHHHHHSHMSGTEEAILGGRDSHPAAGGGSVLCFGQCQYTAEEYQAIQKALRQRLGPEYISSRMAGGGQKVCYIEGHRVINLANEMFGYNGWAHSITQQNVGEYALQQWGLLHCPAPAESLLWVRR”, the “soluble on expression in E. coli” value was “soluble”.

“MGHHHHHHSHMSGVAGGASKKSSSRTMATKKLIIDEFKRRLRDNIKSLNDNFFHIIQAAKVNPDDNAYKNQTGKMTEFYTTKNEMAVRAQLMVRASDELLKLTADLKEFLILHDFHFLTHNIKQAEAQCEETLRQQSHQHNCLDSEVSNILFDLEREIAENFYLRHT”: the “soluble on expression in E. coli” value was “not soluble”.

As for “MGHHHHHHSHMSLDINQIALHQLIKRDEQNLELVLRDSLLEPTTTVVEMVAELHRVYSAKNKAYGLFNEESELAQALRLQRQGEEDFLAFSRAATGRLRDELAKYPFADGGIVLFCHYRYLAVEYLLVTVLNNLSSMRVNENLDINPTHYLDINHADIVARIDLTEWETNPQSTRYLTFLKGRVGRKVADFFMDFLGASEGLNAKAQNRGLLQAVDDFTAEAQLDKAERQNVRQQVYSYCNEQLQAGEEIELESLSKELSGVSEVSFSEFTAEKGYELEESFPADRSTLRQLTKYAGSGGGLTINFDAMLLGERIFWDPATDTLTIKGTPPNLRDQLQRRTSGGK”, the “soluble on expression in E. coli” value is reported as “soluble”.

The values above are taken from the DeepSol protein solubility set.
